# Key:
# [1] = test system: UreD-GFP fusion protein (urea-inducible ureD promoter); assay: Urea induction of UreD-GFP fusion, Western blot with anti-GFP; format: cell-based, P. mirabilis HI4320; settings: 0-500 mM urea tested (FIG. 1)
# Excerpt: Thus, to investigate in vivo expression of P. mirabilis urease, the gene encoding green fluorescent protein (GFP) was used to construct reporter fusions. Translational fusions of urease accessory gene ureD, which is preceded by a urea-inducible promoter, were made with gfp (modified to express S65TIV68L/S72A, a well-known variant of gfp). The constructs were confirmed by sequencing of the fusion junctions. UreD-GFP fusion protein was induced by urea in both E. coli DH5a and P. mirabilis HI4320. Thereafter, Western blotting was carried out with antiserum raised against GFP.
# [2] = test system: ureD promoter (PureD-lacZ reporter construct); assay: β-galactosidase reporter assay (PureD-lacZ) with UreR constructs; format: cell-based, E. coli Top10
# Protocol: Cultures were grown to mid-log phase and induced with 0.2% (w/v) arabinose in the presence or absence of 100 mM urea for 90 min. All constructs were assayed in duplicate in five independent experiments.
# More specifically, wild-type ureR was cloned into the NcoI/XhoI site of pBAD/MycHisA (Invitrogen) to create pCP016 (Poore et al, supra). This construct was used to create alanine mutants using overlapping PCR site-directed mutagenesis as described by Ho et al, Gene, 71:51-59 (1989); and Poore et al, supra. Full-length mutant ureR PCR products were then constructed by ligation into the NcoI/XhoI site of pBAD/MycHisA. Following PCR mutation to Ala, all of the cloned products in the pBAD vector were verified by sequencing. The constructs were then cotransformed with the reporter vector PureD-lacZ into E. coli Top10 (pCC142) (Invitrogen). The β-gal reporter construct pCC042 (tetR) carries a transcriptional fusion of the ureD promoter (pureD) and lacZ (Poore et al, supra). Unless otherwise stated, strains were cultured in Luria broth supplemented with ampicillin (100 μg/ml), kanamycin (50 μg/ml), or tetracycline (15 μg/ml) as required. Thereafter, activity was determined using a β-galactosidase reporter assay in the absence and presence of 100 mM urea.
# More specifically, overnight cultures were diluted 1:10 into fresh medium supplemented with ampicillin. Mid-exponential cultures were induced with 0.2% (w/v) arabinose and either no urea or 100 mM urea for 1 h. Bacterial suspensions were placed on ice for 10 min and then permeabilized with 0.1% (w/v) SDS (50 μl) and chloroform (100 μl) at room temperature for 30 min. Aliquots (20-50 μl) were diluted to 1.0 ml in Z buffer comprising 200 μl o-nitrophenyl-β-D-galactopyranoside (4.0 mg/ml) and were incubated at room temperature. Timed reactions were stopped by addition of 1.0 M Na2CO3 (500 μl) and the optical densities at 420 nm and 550 nm were used to calculate Miller units for each assay (Platt et al, “Assays of β-galactosidase Activity”, In: Miller (ed.), Experiments in Molecular Genetics, Cold Spring Harbor Press, Cold Spring Harbor, N.Y., pages 352-355 (1972)). […] The results, which are shown in Table 1 below, are expressed as the average of at least three independent experiments.
# The UreR Trp point mutants were confirmed by sequencing and were tested for the ability to induce β-galactosidase expression using the PureD-lacZ reporter assay in the presence of 100 mM urea as described above.
# [3] = Trp emission spectra of purified nUreR Trp mutants titrated with urea; format: binding; settings: upon addition of urea (0-150 mM); excitation 280 nm; room temperature
# Protocol: Protein samples (2.0 μM) in 50 mM PBS (pH 7.0), were excited at 280 nm at room temperature.
# Three independent experiments were used to calculate the binding constant for this mutant. ΔTrp Emission is the difference in Trp emission intensity with and without urea. The binding constant was determined by fitting the data to the corresponding Hill parameters.
# More specifically, Trp emission spectra were collected at room temperature using a Varian Cary Eclipse spectrofluorometer. Purified nUreR Trp mutants (5.0 μM) were excited at 280 nm and urea-dependent emission spectra were measured on the same sample following titration with increasing concentrations (0-150 mM) of urea.
# The corresponding Hill parameters were invoked using the curve fitting functions packaged with the Microcal Origin 6.0 data analysis graphing program (Northampton, Mass.).
# Trp fluorescence emission spectra from 300-450 nm were taken in the presence of increasing concentrations of urea (0, 0.05, 1, 10, 100 and 150 mM).
molecule,measurement,setting,value
NC(N)=O [urea],urea concentration giving highest induction of UreD-GFP,[1],200 to 500 mM
"Y54W UreR (protein, UniProt Q02458 1-293, looked up, variant Y54W) Urease operon transcriptional …: MEYKHILSSNQISLKTFYIENPMIAIVYGAKGEICINGQTITVTTNLTLIIPKWSQVSCDVTNFFPTKPIELHTLVLSETELQSVFSLLKPLIKSGAPITRHLPDYHLSTPEVVKTNFTLLQQCLPLEHGTPSQETLFMQQSLFFILLAVYHEGVDILNIFRFNYDEPKNQAITHLITQDPQRKWHLEDVAKTLYTTPSTLRRHLSKEGVSFCQLLLDVRMPIALNYLTFSNYSVFQISHRCGFGSNAYFCDAFKRKYGMTPSQFRTQSRQANDPNAIATMASQNDESIKKVF",fold induction in β-galactosidase activity,[2]; addition of 100 mM urea (FIG. 3),2.8 fold
same,β-galactosidase reporter activity compared to wild-type UreR,"[2]; full-length UreR Trp point mutants, 100 mM urea (FIG. 3)",overall reduction in the level of activation
"Wild-type: wild-type P. mirabilis UreR expressed from pBAD/MycHisA (pCP016) (protein, UniProt Q02458 1-293, looked up, Myc-His tag from pBAD/MycHisA) Urease operon transcriptional …: MEYKHILSSNQISLKTFYIENPMIAIVYGAKGEICINGQTITVTTNLTLIIPKYSQVSCDVTNFFPTKPIELHTLVLSETELQSVFSLLKPLIKSGAPITRHLPDYHLSTPEVVKTNFTLLQQCLPLEHGTPSQETLFMQQSLFFILLAVYHEGVDILNIFRFNYDEPKNQAITHLITQDPQRKWHLEDVAKTLYTTPSTLRRHLSKEGVSFCQLLLDVRMPIALNYLTFSNYSVFQISHRCGFGSNAYFCDAFKRKYGMTPSQFRTQSRQANDPNAIATMASQNDESIKKVF","β-Galactosidase Activity (Miller units), 0 mM urea","[2]; 0 mM urea, 0.2% arabinose induction, average of at least three experiments",632 ± 203 Miller units
same,"β-Galactosidase Activity (Miller units), 100 mM urea","[2]; 100 mM urea, 0.2% arabinose induction, average of at least three experiments",3709 ± 1570 Miller units
"Y151W nUreR (protein, UniProt Q02458 1-293, looked up, variant Y151W) Urease operon transcriptional …: MEYKHILSSNQISLKTFYIENPMIAIVYGAKGEICINGQTITVTTNLTLIIPKYSQVSCDVTNFFPTKPIELHTLVLSETELQSVFSLLKPLIKSGAPITRHLPDYHLSTPEVVKTNFTLLQQCLPLEHGTPSQETLFMQQSLFFILLAVWHEGVDILNIFRFNYDEPKNQAITHLITQDPQRKWHLEDVAKTLYTTPSTLRRHLSKEGVSFCQLLLDVRMPIALNYLTFSNYSVFQISHRCGFGSNAYFCDAFKRKYGMTPSQFRTQSRQANDPNAIATMASQNDESIKKVF",% Decrease in Trp Emission,[3],9 ± 2%
